Laboratory results taken from paper PMC12483278, “The viral BCL2 protein BHRF1 of Epstein–Barr virus promotes AIM2 inflammasome activation to facilitate lytic replication” (PLOS Pathogens, 2025).

Target: T1, GST-AIM2 full-length (UniProt O14862 1-343)
T1 construct: also called GST-AIM2 WT; GST-tagged AIM2; source: HEK293T, transfected, in lysate
T1 sequence (looked up): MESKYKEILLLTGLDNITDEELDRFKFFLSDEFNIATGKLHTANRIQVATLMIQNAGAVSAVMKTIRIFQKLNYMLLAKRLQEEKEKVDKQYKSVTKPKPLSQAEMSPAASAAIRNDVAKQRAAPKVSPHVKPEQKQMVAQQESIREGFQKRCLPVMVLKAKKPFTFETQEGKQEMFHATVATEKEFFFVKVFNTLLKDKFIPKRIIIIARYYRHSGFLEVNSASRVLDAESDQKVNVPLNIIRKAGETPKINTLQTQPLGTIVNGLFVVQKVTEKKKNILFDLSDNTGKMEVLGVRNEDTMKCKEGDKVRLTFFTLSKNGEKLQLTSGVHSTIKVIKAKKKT
Assay: pull-down; purified GST-AIM2, Flag-ASC-His and GFP-BHRF1-His mixed and incubated in the absence or presence of purified HSV-1 dsDNA overnight at 4 °C; GST-affinity beads, western blotting
Settings: both partners purified

B1: GFP-BHRF1-His (natural protein)
chain: MAYSTREILLALCIRDSRVHGNGTLHPVLELAARETPLRLSPEDTVVLRYHVLLEEIIERNSETFTETWNRFITHTEHVDLDFNSVFLEIFHRGDPSLGRALAWMAWCMHACRTLCCNQSTPYYVVDLSVRGMLEASEGLDGWIHQQGGWSTLIEDNIPGSRRFSWTLFLAGLTLSLLVICSYLFISRGRH
notes: also called purified BHRF1 protein
binding result: binds
